Test: label from the status in PepcDB records

Sequence | protein production
MLQAGTKKFLREYGSTCAPLFLALGVCLICCLPAACPKENFIDENAISVSRVPVITGMLGELHMDTRISQYTRVVRGRRSVGSESIAVYVNAAFESSVVLANHLIYVLREKENMACDTNFYFFNDTSKDWPIPDSFVRAAIVINVTSFHTNNLCFNVFGANGMQPNQDLFNLAVAIAEKWRFNIDVLCQNPYISFSTSRPIYEHYFLALQTALVAPLRYQPWYKMRSRGISLLAISTEKSERRTKSSYGYNMAAAHEQLIATLSYLHERFHHSTSVWIPLSVDQYVEYDVIQFATILFVASLLSTCYSIYEVEGFSFSPCAALVSATGLAALVSTLNFGTAGFFVSSGVLTVGLGAFSWDMSWGAINAVVLCLLIILQPVAGLVMGFGATLQLQFIHVRCRKWHVLLIGAILSWIVLVALTEVMKAKLFDTETTAGVYFSFFLYPNALWISSRLIRSTLGA | failed
MTSPSHASDRGGGDGDSVENQSPELRKDPVTNRWVIFSPARAKRPTDFKSKSPQNPNPKPSSCPFCIGREQECAPELFRVPDHDPNWKLRVIENLYPALSRNLETQSTQPETGTSRTIVGFGFHDVVIESPVHSIQLSDIDPVGIGDILIAYKKRINQIAQHDSINYIQVFKNQGASAGASMSHSHSQMMALPVVPPTVSSRLDGTKDYFEETGKCCLCEAKSKHFVIDESSHFVSVAPFAATYPFEIWIIPKDHSSHFHHLDDVKAVDLGGLLKLMLQKIAKQLNDPPYNYMIHTSPLKVTESQLPYTHWFLQIVPQLSGVGGFEIGTGCYINPVFPEDVAKVMREVSLT | not failed
MAGAMRKMAVYLGLVEDDGYDGRGFDPDDDFEPELDPEPERDRRRHEPPHQSHQALHPQRDESVRVVQPPMQRDPVPHSASLPAESVRPARIAPVASITQERQSLEKNAPVIMPKVVSEREPYRITTLHPRTYNEARTIGEHFREGTPVIMNLTEMDDTDAKRLVDFAAGLVFGLHGSIERVTQKVFLLSPANVDVTAEDKARIAEGGFFNQSLEHHHHHH | not failed
MGHHHHHHSHSKKPYIVTIACTKGGSAKSTNAANIGAFCADHGLRTLLIDTDTQPTLSSYYSLAKTAPGGIYEFLLQRDVEPSHIVSQTSIKNLDLIQSNDPSNNVSHMLRNAPDGSIRFSHLIKSINNYDVIVIDTRGTRDITVDMSVLAADILFCPILPQILSAKEFIRGTIGMYQDLQTFESFGFKLPPLKAIANGVDNTNDVKFVMQKLHTLFANTFDESKTLLDFSIPYHVAYREAVTYALPVYRHSAVEYPVMQQLCC | failed
MRYADRVAGISWETIEEVRRRLKERPALHFIAGEFVPSESGETFPSLDPATNEVLGVAARGGEREVDRAAKAAHEAFQRWSRTKAKERKRYLLRIAELIEKHADELAVMECLDAGQVLRIVRAQVARAAENFAFYAEYAEHAMEDRTFPVDRDWLYYTVRVPAGPVGIITPWNAPLMLSTWRIAPALAFGNTVVLKPAEWSPFTATKLAEILKEADLPPGVFNLVQGFGEEAGAALVAHPLVPLLTLTGETETGKIVMRNAADHLKRLSPELGGKSPALVFADADLERALDAVVFQIFSFNGERCTASSRLLVEEKIFEDFVGKVVERARAIRVGHPLDPETEVGPLIHPEHLQRVLGYVEAGKREGARLLVGGERAKTSFRGEDLSRGNYLLPTVFVGENHMKIAQEEIFGPVLVAIPFKDEEEALRKANDTKYGLAAYVFTRDLERAHRLALELEAGMVYLNSHNVRHLPTPFGGVKGSGDRREGGTYALDFYTDLKTIALPLRPPHVPKFGK | not failed
MSSKIDALKITVLSLSLCFSVSSLSATVNKTVKQKKNVIYILTDDQRYDEVGFLNPRIDTPNMDKLAAGGVYFKNAFVTTALCSPSRATILTGQYMHNHGVVDNNNPAKESSVYFPSYLQEVGYETSFFGKWHMGGHGDSPQPGFDHWLSFAGQGHYYPKKDKKGRTNKININGERVDQKGYITDELTDYAVDWLDKRDSDKPFFMYLSHKAVHSNFDPAPRHKDQYSDVAIEVPESQADTPENYAGKPMWVKNQRNSWHGVDFPYHSEMDVQEYKRQYHRALSAVDDSLGRVLKWLKDNNLENDTIVMLMGDNGFMFGEHGLIDKRNAYEESMRVPLLAYAPGYFKPGTVVDEMVANLDIAPTILEIAGAKKPAHFDGDSWLPLAKNKEVNQWRENFLYEYYWEFNYPSTPTTFALRTDNYKLIQYHGVWDTEELYDLKNDPKEMNNLINTPKHQPLIAQMRHDLFNLLVNKKGDNVIPYTEKYTPGAVYRERDRGETADFPDNWLKKEGDDGLRTFLRIKPIKDKKDDKKKSAKH | failed
MTQDELLVLIEQAATEGWRELDLSGQELTELPGEIGKLQQLESLILGKQVGGYEKVGYRIFQKALGNNLKTLPIELLSLPNLRKLDISGNPLEGIPDVVMQILHLEELILIRVQLTEIPEALAKLTNLTQLILSDNQITEIPEALAKLTNLTQLNLSYNQITEIPEALAKLTNLTQLNLSYNQITEIPEALAKLTNLTQLNLRGNQRTEIPEALAKLTNLTRLNLSYNQRTEIPEALAKLTNLTQLILSDNQIKEIPETIAKLTNLTHLILSGNQIKEIPETIAKLTNLTQLGLDGNQIKEIPEAIAKLTNLTQLGLDGNQIKEIPEAITKLTNLTHLILSGNQIKEIPETIAKLTNLTQLALSSNQITEIPEVLAQLTNLTQLFLSSNQITQIPEALAPLTNLTTLHLRVNQITQIPEAIESLPKLELLDLRGNPLPISPEILGSVYQVGSVEEIFNYLRLLRSGEVRPLNEAKLLLVGQGSVGKTSLIERLIHNKYDRNQPQTDGLKVETWNVQVNSKDIRLNVWDFGGQEIYHATHQFFLTKRSLYLLVCNCRTSEEENRIEYWLKLIESFGGQSPVIIVGNKKDEQPLDINRKALREKYPNIQAIIETSCQDNIGIDELRTAILQQVGNLKEVYDLLPLSWFEVKQQLESMSQDFITYSSYIGICYENKIPEEHNQEQLIDLLHRLGLVLNFREHPILRDTNVLKPNWVTEGIYALLSDENLKTKSKGIFTPADLTRVLNPERYPTKRHGYLIELMKEFELGFELACYPPQFLIAGLLPKDQPDATELEGETLEFQYHYKVLPESIISRFIVNTHERIHNQIYWRSGVMLQYQQHNEIYNIARIKADPEDKKIFIAISGRKETRRSFLAILRDVFQKIHKSLANLEITEWVPVPGYPNHPPLDYQELLGLETMGILEYPIGKLKININIRQLLDGYESLESRRKLQKGDHDLDDRTAYEDILDIAKLAVSRPIITKAEAKAVSENPQFTNNLQGANIANFANEVKDNASQQASNFNQTSGANIAEIMQLINNLRQTVAQFPPEIRDDIIIDIDDVEVEIQKPEKERNTPKLKKRLAALLTAASVAAAPIASVVDFTNNVMELGSKLGIELIQPSP | failed
MTAFRCLITGLTWLAKPGIRRYVWIPLAVNLVLYGLGLWLGIRYFSAFLNWMLPGWLDFLRWLLWPVFAVGFFTVMYFTFSVLANIIGSPFYGVLAERTAELATGRRIRPAGVAGEVGMWSALRSEFRRLAYLGLRIVPLAALFLVPVVNLVAPVLWMLFNAWFMALEYTAYPLEARGYDFDHQRSLLGRFRLGAATFGGTVLLAQTIPLLNVLAAPAAVIGATLYLLELPVEE | failed
MSLFAELTASVNAVRPGRTRMRNYDMPLIVAASTLLLLGLLMVYSASIALADGPRYASYGRYYFVIRHGLFLTAGLLAAAVVLSVPIRVWQRLAVPLFMFALILLVAVLIPGIGREVNGAHRWIPLGPLNFQPSELMKLAALLYAADYTVRKQEHMQAFSRGFLPMACALGGVGMLLLLEPDLGAFMVIVAIAIGILFLGGINGKYFSSLLAVLVGTFLMLIWVSPWRRARLFAYLDPWNEANAYGSAYQLSHSLIALGRGEWFGVGLGASVEKLHYLPEAHTDFLMAVVGEELGFAGVMLVITLFAIIVYRGFDIGRQAIAMERTFAGLVAHGVAMWVGVQAFINMGVCLGLLPTKGLTLPLMSYGGSGIVMNLCALAMLIRVDVENRVMMRGGRV | failed
MSDSKFLRGTLIVTLGTFLVKFLGMIYVFPFHALVGTEGGTLYTYGYIPYTIFLSIATAGVPLAVSKFVSKYNALGDYKTSRRMFRSGMVMMIVTGVLSFLVLYMTAPLFAEAMLGKQSIHNNVGEVTTIIRLVSFALIVVPAASLIRGYFQGHQSMGPTTVSQIIEQIIRIVFLLAGSFIVIKVLGGTVATAVGVATFAAFVSAVGALGVLIWYWLKRKKYLDQYLIEQTVPESTVSTVQLFKELFAYAIPYVVIGLTIPLYQQIDTLTFNSIMQAIGQGDIAERALGIFTMWTHKLIMIPVSLATAFSLTLVPAITKSFTEKQYRYLKLQITQTFQANMFLTLPAVVGISSLAYPIYTAFYDSDPLGGQVLMWYAPVALLFALFTVTAAILQGINQQKHAIIALIMGVILKFVCNVIFIRYFGTVGAILATAVGFLASVWYTNQQIKKYAHYSFGVVYKRTFQIAVLTLIMVVAVKLSQWILSFMISPDGRIGALITVAICAGIGGLVYGLLAIRTGVLERVFGGEALDKIQRKLGSRFKIKLKSRGA | not failed

From a protein production outcome set (Wang et al. 2014)
